Data published in PMC2955292 (Chemistry & biology, 2010).
“And” between values parts separate entries of the source, which are not always exact repeats. Equal entries are not always repeated.

Molecular target: the molecule itself
Test: AUC

B1: Escherichia coli ClpP (enzyme)
chain: not shown
With B1 the “stoichiometry N” value was 14 and 7.
